# According to article PMC5051681:
# Key:
# [1] = biological target: C1a - 10 nm - C2 SPASM biosensor (human) (UniProt P17252); experiment: FRET or BRET; change in heteroFRET after addition of free calcium against the concentration of C1a - 10 nm - C2; Hill binding model; half-maximal value taken as an estimate of the dissociation constant
# [2] = biological target: PKC alpha C2 (UniProt P17252); conditions: cited from earlier work
# [3] = biological target: PKCα sensor (N-terminal mCer, C-terminal mCit) with a TEV protease site between the C2 and kinase domains (human) (UniProt P17252); experiment: dynamic light scattering; sensor pre-treated with TEV protease or BSA, or C2-mCit; relative increase in particle mass after 2 min with free calcium, matched concentration
# [4] = biological target: regulatory domains of PKCα with mCer (N-terminal TEV product of the PKCα sensor cut between C2 and kinase) (human); experiment: as above
substance,measurement,setting,value
C1a - 10 nm - C2 SPASM biosensor (from UniProt P17252 32-100; P17252 158-292),Kd,[1],61.1 nM
PKC alpha C1a (from UniProt P17252),Kd,[2],4 nM
"PKCα sensor (N-terminal mCer, C-terminal mCit) with a TEV protease site between the C2 and kinase domains (from UniProt P17252 1-672) (natural protein)","mean particle size increase after free calcium (DLS, normalised)",[3],5.61
regulatory domains of PKCα with mCer (N-terminal TEV product of the PKCα sensor cut between C2 and kinase) (domain or fragment),"mean particle size increase after free calcium (DLS, normalised)",[4],2.61
